B1: monoclonal antibody M1 (antibody, V domains shown)
VH: QVQLQQSGPELVRPGASVKMSCKTSGYPFSTYWMHWVKQRPGQGLEWIGMIKPSNSETSLNQKFKDKATLNVDKSSNTAYMQLNSLTSEDSGVYYCARAGDSWGQGTTLTVSS
VL: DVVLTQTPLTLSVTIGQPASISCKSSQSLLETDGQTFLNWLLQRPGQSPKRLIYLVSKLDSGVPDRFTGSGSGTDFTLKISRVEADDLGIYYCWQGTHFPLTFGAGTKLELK
notes: also called MAb M1
B2: monoclonal antibody C1 (antibody, V domains shown)
VH: EVQLQQSGAELVRPGALVKLSCKASGFNIKDYYMHWVKQRPEEGLEWIGWIDPENGNTIYDPKFQGKASITADTSSNTVRLQLSSLTSEDTAVYYCARERGAYWGQGTLVTVSA
VL: QIVLTQSPAIMSASPGEKVTMTCSASSSVSYMYWFQQKPGSSPRLLIYDTSNLASGVPVRFSGSGSGTSYSLTISRMEAEDAATFYCQQWSSYPLTFGAGTKLELK
notes: also called MAb C1
B3: monoclonal antibody M2 (antibody, V domains shown)
VH: EVQLVESGGGLVQPKGSLKLSCAASDFTFNTHSMNWVRQAPGKVLEWIARIRSQSNNYATYYADSVKDRFTISRDDSQNMFYLQMNNLKTEDTAMYYCAGDYYGPFAYWGQGTLVAVSA
VL: DVLMTQTPLSLPVSLGDQASISCRSGQSLVHSNGNTYLHWYLQKPGQSPKLLIYKVSNRFSGVPDRFSGSGSGTDFTLKISRVEAEDLGVYFCSQSTHVPWTFGGGTKLEIK
notes: also called MAb M2
B4: monoclonal antibody M3 (antibody, V domains shown)
VH: EVILVESGGGLVKPGGSLRLSCAASGFTFSSHPLSWVRQSPDKRLEWVASISSGGRYTYYPDSVKGRLTISRDNAKNILYLHMNSLRSEDTAMYYCARRGSTATAWFAYWGQGTLVTVSA
VL: DIALTQSPASLAVSLGQRATISCKASQSVDYDGDSYMSWYQQKPGQPPKLLIYGASNLESGIPARFSGSGSGTDFTLNIHPVEEEDAATYYCQQSNEDLPTFGGGTKLEIK
notes: also called MAb M3
B5: monoclonal antibody N1 (antibody, V domains shown)
VH: EVQLVESGGGLVQPGGSLKLSCAASGFTFSSYGMSWVRQSPDKRLEWVATINNNGGSTYYPDSVKGRFTISRDNAKNTLYLQMSSLKSEDTAVYYCARDAAFDCWGQGTTLTVSS
VL: DIVMSQSPSSLAVSAGEKVTMSCKSSQSLLNSRTRKNYLAWYQQKPGQSPKLLIYWASTRESGVPDRFTGSGSGTDFTLTISSVQAEDLAVYYCKQSYNLFTFGSGTKLEIK
notes: also called MAb N1

Molecular target: T1, CP of tomato brown rugose fruit virus (genus Tobamovirus) (Tomato brown rugose fruit virus, UniProt A0A0S2SZX3 2-159)
T1 construct: also called ToMMV (as printed for this virus)
T1 sequence: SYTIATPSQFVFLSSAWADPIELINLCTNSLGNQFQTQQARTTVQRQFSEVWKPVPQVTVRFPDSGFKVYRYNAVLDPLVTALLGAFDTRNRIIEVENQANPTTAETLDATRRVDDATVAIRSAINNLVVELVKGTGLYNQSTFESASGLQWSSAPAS
Experiment: dot blot; also Western blot and ELISA

Binder	binding result
B1	no binding
B2	no binding
B3	no binding
B4	no binding
B5	no binding

Source: patent US20240239872A1 (SHANDONG AGRICULTURAL UNIVERSITY, published 2024)
